Assay results published in patent publication US20260265410A1 (UNIVERSITY OF FLORIDA RESEARCH FOUNDATION, published 2026).
Numbering of substitutions follows the chain as printed.

T1: human Nectin-2 extracellular domain (amino acid residues 1-360 of human Nectin-2) fused to hFc (human, UniProt Q92692 32-360)
T1 construct: Bought; also called hNectin-2-ECD-hFc; NECTIN2-ECD-hFc; not shown: human Fc (hFc)
T1 sequence: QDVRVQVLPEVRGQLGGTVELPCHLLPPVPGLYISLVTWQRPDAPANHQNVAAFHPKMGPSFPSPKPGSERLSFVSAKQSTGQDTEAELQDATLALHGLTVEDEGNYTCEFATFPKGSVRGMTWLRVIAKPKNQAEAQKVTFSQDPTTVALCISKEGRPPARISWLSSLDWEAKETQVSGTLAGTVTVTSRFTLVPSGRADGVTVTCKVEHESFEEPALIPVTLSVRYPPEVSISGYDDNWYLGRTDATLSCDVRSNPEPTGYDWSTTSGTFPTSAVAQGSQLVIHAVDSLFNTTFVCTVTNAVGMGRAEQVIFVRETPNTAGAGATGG

T2: human CD105-ECD: amino acid residues Met 1-Gly 586 of human CD105 (Sino bio: Cat: 10149-H02H) (human, UniProt P17813 26-586)
T2 construct: Bought; also called hCD105-ECD-hFc; hCD105-hFc
T2 sequence: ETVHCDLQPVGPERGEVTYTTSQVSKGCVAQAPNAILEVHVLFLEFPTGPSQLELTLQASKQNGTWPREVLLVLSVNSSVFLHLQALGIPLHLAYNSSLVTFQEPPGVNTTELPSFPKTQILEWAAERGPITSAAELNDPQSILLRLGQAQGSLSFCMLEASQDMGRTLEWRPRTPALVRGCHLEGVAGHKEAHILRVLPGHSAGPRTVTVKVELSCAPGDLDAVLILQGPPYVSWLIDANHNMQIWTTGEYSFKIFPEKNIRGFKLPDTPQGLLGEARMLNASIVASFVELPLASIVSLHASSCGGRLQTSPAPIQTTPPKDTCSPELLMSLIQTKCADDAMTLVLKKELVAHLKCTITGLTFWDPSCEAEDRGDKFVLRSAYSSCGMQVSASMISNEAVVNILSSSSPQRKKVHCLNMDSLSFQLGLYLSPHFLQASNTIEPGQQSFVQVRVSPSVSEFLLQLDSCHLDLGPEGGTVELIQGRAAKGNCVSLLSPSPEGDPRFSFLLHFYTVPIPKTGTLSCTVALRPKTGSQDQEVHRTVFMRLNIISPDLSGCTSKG

T3: mouse PTPRG ECD (amino acid residues 20-733 of mouse PTPRG) fused to hFc (mouse, UniProt Q05909 20-733)
T3 construct: Produced in-house; also called mPTPRG-ECD; Mouse PTPRG-ECD-hFc; not shown: human Fc (hFc)
T3 sequence: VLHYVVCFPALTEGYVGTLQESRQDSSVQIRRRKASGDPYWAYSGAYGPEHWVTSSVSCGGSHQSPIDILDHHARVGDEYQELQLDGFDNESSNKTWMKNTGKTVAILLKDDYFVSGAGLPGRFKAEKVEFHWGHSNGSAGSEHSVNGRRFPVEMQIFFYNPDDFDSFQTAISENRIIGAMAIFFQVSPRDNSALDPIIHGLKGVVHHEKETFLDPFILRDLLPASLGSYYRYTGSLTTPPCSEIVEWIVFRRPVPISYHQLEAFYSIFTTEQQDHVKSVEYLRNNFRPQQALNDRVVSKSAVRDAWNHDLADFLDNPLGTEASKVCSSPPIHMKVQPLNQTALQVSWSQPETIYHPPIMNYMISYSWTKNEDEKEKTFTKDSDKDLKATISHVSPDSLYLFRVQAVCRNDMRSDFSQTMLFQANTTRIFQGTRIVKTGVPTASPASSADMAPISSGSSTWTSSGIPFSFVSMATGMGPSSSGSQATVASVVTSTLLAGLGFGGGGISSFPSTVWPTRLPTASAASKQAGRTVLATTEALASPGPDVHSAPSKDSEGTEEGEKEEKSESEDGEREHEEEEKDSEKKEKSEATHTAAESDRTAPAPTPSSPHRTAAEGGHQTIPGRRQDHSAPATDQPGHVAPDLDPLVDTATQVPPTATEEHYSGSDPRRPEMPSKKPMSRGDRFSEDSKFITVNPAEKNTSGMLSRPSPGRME

T4: C-terminal domain (CTD) of human PTPRG (amino acid residues 349~736 of human PTPRG) (human, UniProt P23470 349-736)
T4 construct: also called hPTPRG-CTD; human PTPRG carboxyl domain
T4 sequence: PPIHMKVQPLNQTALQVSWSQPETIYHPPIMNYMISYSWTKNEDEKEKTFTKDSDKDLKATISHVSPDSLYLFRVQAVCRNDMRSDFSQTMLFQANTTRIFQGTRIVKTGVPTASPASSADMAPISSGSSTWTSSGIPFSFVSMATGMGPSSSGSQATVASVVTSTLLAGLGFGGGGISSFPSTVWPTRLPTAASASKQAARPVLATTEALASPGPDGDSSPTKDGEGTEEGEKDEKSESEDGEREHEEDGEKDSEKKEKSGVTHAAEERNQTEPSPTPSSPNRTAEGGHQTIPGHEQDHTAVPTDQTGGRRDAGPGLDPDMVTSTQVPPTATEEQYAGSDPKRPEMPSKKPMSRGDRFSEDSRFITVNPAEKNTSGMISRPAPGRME

B1: Fab_130 (Fab, V domains shown)
VH: QEQQKESGGGLFKPTDTLTLTCTVSGFSLSSNAISWVRQAPGNGLEWIGAIDNSGSAYYATWAKGRSTITRATNLNTVTLKMTSVTAADTATYFCAREDVRADSIDLNMWGPGTLVTISS
VL: SFVLTQPASVQVNLGQTVSLTCTADTLSRSYASWYQQKPGQAPVLLIYRDTSRPSGVPDRFSGSSSGNTATLTISGAQAGDEADYYCATSDGSGSSYQFVFGGGTQLTVTG
notes: Chimeric rabbit/human Fab; also called P130; clone 130
B2: Fab_11 (Fab, V domains shown)
VH: AQSLEESGGRLVTPGTPLTLTCTVSGFSLSSYAMTWVRQAPGEGLEWIGTIGAGGSPYYASWAKGRFTISKTATTVNLKIISPTTEDTATYFCAREGGGSYYFDLWGPGTLVTVSS
VL: B1 VL with S96T, Y97F, Q98H
notes: Chimeric rabbit/human Fab; also called P11; mAb_11
B3: Fab_2653 (Fab, V domains shown)
VH: QEQLEESGGRLVTPGTPLTLTCTASGFSLSTYAMTWVRQAPGKGLEWIGIIDRYGYTYYANWARGRFTISKTSTTVDLKITSPTTEDTATYFCARDLPGYNVGTYFNMWGPGTLVTISS
VL: B1 VL with S30R, L46F, N68S
notes: Chimeric rabbit/human Fab; also called P2653; clone 2653
B4: Fab_1707 (Fab, V domains shown)
VH: AQSLEEFGGGLIKPGGTLTLTCTASGFTISSYDMSWVRQAPGSGLEWIGTMAYGGDTYHASWAKSRSTITRDTNLNTVTLKMTSLTVADTATYFCARDVGSGHYYDDMYLWGPGTLVTVSS
VL: B1 VL with L14F, S30R, S90G, Q98N, F99Y
notes: Chimeric rabbit/human Fab; also called P1707
B5: Fab_28 (Fab, V domains shown)
VH: AQSVEESGGRLVTPGIPLTLTCTVSGFSLNNYAMSWVRQAPGKGLEWIGMIDSGGAAYYATWARGRFTISRTSTTVDLKITSPTTEDTATYFCARELSSLYGAFDPWGPGTLVTVSS
VL: B1 VL with S30R, F99C
notes: Chimeric rabbit/human Fab; also called P28; clone 28
B6: Fab_3208 (Fab, V domains shown)
VH: AQSVKESEGGLFKPTDTLTLTCTVSGFSLSSYAISWVRRAPGNGLEWIGAIAGYGDAYYASWAKSRSTITRNTNENTVTLKMTSLTAADTATYFCARDDYNVDTGIWGPGTLVTISS
VL: B1 VL with S30R, S90G, F99Y
notes: Chimeric rabbit/human Fab; also called P3208; clone 3208
B7: Fab_2861 (Fab, V domains shown)
VH: AQSVEESGGRLVTPGTPLTLTCTVSGIDLSSYAMGWVRQAPGKGLEYIGIIVSDGRTYYTSWAKGRFTISKTSTTVDLKMTSPTTEDTATYFCAREGYGYYFDIWGPGTLVTISS
VL: B1 VL with S30R, S90A
notes: Chimeric rabbit/human Fab; also called P2861; clone 2861
B8: Fab_17 (Fab, V domains shown)
VH: AQSLEEFGGRLATPGTPLTLTCTASGFSLGTYSMSWVRQAPGKGLEWIGTIGGRGDAYYASWAKGRFTISRTSTTVDLKMTSLATEDTATYFCVRENYGYAFDIWGPGTLVTISS
VL: B1 VL with S30R, F99C
notes: Chimeric rabbit/human Fab; also called P17; clone 17
B9: Fab_240 (Fab, V domains shown)
VH: AQSLEESGGRLVTPGTPLTLTCTVSGFSLSAYAMSWVRQAPGKGLEWIGIISSYGNTYYATWAKGRFTISKTSTTVDLKITSPTTEDTATYFCARGDYGNGMSIWGPGTLVTVSS
VL: B1 VL with S30R, S52R, F99C
notes: Chimeric rabbit/human Fab; also called P240; clone 240
B10: Fab_2388 (Fab, V domains shown)
VH: QEQLKESGGGLFKPTDTLTLTCTVSGFSLSNYAISLVRQPPGNGLEWIGAIDAGGVTYYASWAKSRSTITRNTNLNTVTLKMTSLTAADTATYFCAREEWSSSSGLYFSIWGPGTLVTISS
VL: B1 VL with S30R, Q98L, F99Y
notes: Chimeric rabbit/human Fab; also called P2388; clone 2388
B11: Fab_1187 (Fab, V domains shown)
VH: AQSVEESGGRLVTPGTPLTLTCTVSGIDLSSYAMSWVRQAPGKGLEWIGVIDGSGSTWYANWVKGRFTISKTTTVDLKITSPTTEDTATYFCAREDYGSETIDFNIWGPGTLVTVSS
VL: B1 VL with S30R, S52R, F99Y
notes: Chimeric rabbit/human Fab; also called P1187; mAb_1187

target: T1, human Nectin-2 extracellular domain …; assay: ELISA, absorbance at 405 nm, one condition per Fab and antigen

Row | binding result | Binder
1 | no binding | B1
2 | no binding | B2

target: T2, human CD105-ECD: amino acid residues …; assay: as above

Row | binding result | Binder
3 | no binding | B1
4 | no binding | B2

target: T3, mouse PTPRG ECD (amino acid residues …); assay: ELISA, one condition per Fab and antigen; y axis 0 to 1.8 without name or unit

Row | binding result | Binder
5 | binds | B1
6 | binds | B3
7 | binds | B4
8 | binds | B5
9 | binds | B6
10 | binds | B7
11 | binds | B8
12 | binds | B9

target: T4, C-terminal domain (CTD) of human PTPRG …; assay: as above

Row | binding result | Binder
13 | no binding | B1
14 | no binding | B3
15 | no binding | B4
16 | no binding | B5
17 | no binding | B2
18 | no binding | B6
19 | no binding | B7
20 | no binding | B8
21 | no binding | B9

target: T5, human PTPRG on the cell surface (U937 cells, HEL cells) (human, UniProt P23470 20-1445); assay: flow cytometry on whole HEL cells, screen of the 28 clones (Ctrl row = 0); PTPRG is named as the antigen on HEL cells only in the later examples
T5 construct: Endogenous PTPRG of human AML cell lines
T5 sequence (P23470 20-1445): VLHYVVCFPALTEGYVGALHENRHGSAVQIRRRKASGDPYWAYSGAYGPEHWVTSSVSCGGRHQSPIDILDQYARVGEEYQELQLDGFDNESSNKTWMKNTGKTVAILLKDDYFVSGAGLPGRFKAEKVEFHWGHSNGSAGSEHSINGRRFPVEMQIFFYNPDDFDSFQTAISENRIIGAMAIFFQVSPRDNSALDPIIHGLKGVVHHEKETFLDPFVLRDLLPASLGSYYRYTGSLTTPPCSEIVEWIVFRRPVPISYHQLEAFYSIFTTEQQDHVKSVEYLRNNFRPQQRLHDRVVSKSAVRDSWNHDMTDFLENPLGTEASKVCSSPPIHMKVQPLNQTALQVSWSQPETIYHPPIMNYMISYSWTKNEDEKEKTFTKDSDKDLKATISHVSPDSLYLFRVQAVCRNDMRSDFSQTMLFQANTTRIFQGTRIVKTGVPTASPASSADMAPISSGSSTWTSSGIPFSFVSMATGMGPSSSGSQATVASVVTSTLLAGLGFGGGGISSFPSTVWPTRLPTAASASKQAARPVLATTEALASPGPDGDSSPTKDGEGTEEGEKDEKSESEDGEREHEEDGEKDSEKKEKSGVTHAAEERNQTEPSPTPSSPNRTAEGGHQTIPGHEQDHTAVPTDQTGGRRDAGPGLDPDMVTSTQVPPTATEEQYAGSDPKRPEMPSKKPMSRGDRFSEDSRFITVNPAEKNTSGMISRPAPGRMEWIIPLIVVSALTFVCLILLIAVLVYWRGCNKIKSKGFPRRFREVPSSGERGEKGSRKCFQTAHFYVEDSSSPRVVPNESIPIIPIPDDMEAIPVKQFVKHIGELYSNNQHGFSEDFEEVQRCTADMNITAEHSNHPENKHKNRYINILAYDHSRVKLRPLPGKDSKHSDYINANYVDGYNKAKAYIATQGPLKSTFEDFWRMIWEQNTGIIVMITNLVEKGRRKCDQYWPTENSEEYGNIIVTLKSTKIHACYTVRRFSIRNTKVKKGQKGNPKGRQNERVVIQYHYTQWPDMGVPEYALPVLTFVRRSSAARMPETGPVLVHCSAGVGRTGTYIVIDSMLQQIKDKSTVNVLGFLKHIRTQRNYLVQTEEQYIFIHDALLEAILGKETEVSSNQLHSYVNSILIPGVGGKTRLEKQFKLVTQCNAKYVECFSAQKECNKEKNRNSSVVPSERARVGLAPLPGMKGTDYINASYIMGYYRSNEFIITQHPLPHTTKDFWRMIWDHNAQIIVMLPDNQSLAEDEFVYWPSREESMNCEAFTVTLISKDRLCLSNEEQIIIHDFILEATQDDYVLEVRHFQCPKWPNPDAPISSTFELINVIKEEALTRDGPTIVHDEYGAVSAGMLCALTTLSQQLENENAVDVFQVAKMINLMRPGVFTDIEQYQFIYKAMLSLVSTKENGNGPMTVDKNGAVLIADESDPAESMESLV

Row | flow cytometry binding value (the table prints no name or unit) | Binder
22 | 12.6 | B1
23 | 13.6 | B3
24 | 16.9 | B4
25 | 15.8 | B5
26 | 15 | B10
27 | -2.13 | B2
28 | 17.1 | B6
29 | 14.5 | B7
30 | 15.8 | B8
31 | 17.5 | B9
32 | 10.7 | B11

target: T5, human PTPRG on the cell surface (U937 …); assay: flow cytometry on whole U937 cells, screen of the 28 clones (Ctrl row = 0); PTPRG is named as the antigen on U937 cells only in the later examples

Row | flow cytometry binding value (the table prints no name or unit) | Binder
33 | 78.3 | B1
34 | 91.4 | B3
35 | 92 | B4
36 | 87.5 | B5
37 | 90.9 | B10
38 | 92.9 | B2
39 | 92.7 | B6
40 | 85 | B7
41 | 87.5 | B8
42 | 92.7 | B9
43 | 29.3 | B11
